The target in series [1] is T1, CsWRKY40 (Camellia sinensis, UniProt A0A4S4ET85 1-292). Briefly: competition; unlabelled competitor against biotin probe N1; shift gradually reduced with increasing cold probe; LightShift Chemiluminescent EMSA kit (ThermoFisher) per instructions; buffer, salt, pH and temperature not stated. Conditions: protein: recombinant; tags: GST (pGEX-4T-1); blunt. (In general: A gel shift assay detects complexes by their altered migration in electrophoresis.)

For series [2], the target named is T1, CsWRKY40. Nature of the series: EMSA; LightShift Chemiluminescent EMSA kit (ThermoFisher) per instructions; buffer, salt, pH and temperature not stated. As to conditions: protein: recombinant; tags: GST (pGEX-4T-1); label: 3' biotin on both strands; blunt.

T1 sequence (A0A4S4ET85 entry or part of it): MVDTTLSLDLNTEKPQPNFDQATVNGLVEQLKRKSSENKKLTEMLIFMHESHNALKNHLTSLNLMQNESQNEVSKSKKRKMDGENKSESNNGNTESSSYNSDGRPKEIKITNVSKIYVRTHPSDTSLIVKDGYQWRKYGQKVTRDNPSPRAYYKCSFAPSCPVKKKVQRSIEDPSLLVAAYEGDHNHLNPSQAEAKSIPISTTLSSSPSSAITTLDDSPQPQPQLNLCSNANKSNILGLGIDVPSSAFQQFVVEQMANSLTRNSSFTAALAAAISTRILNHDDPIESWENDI

B1: cold probe (W box 2) (dsDNA)
DNA 1: TTTATTTAAGAATTGACCGTAGATAACTTT
DNA 2: AAAGTTATCTACGGTCAATTCTTAAATAAA
B1: in the series with CsWRKY40 [1], the binding result is reported as “binds”.

B2: mutant probe (TTGACC to AAAAAA) (dsDNA)
DNA 1: TTTATTTAAGAAAAAAAAGTAGATAACTTT
DNA 2: AAAGTTATCTACTTTTTTTTCTTAAATAAA
For B2, the binding result with CsWRKY40 [2] is on record as “no binding”.

B3: CsPDX2.1 promoter W box 2 biotin probe (dsDNA)
DNA 1: B1 DNA 1
DNA 2: B1 DNA 2
Take B3: in the series with CsWRKY40 [2], the binding result was “binds”.

For the origin of these results see paper PMC9055099, “Transcription factor CsWRKY40 regulates L-theanine hydrolysis by activating the CsPDX2.1 promoter in tea leaves during withering”.
